Molecular target: the molecule itself
Experiment: crystal structure; sitting drop vapor diffusion at room temperature, 3.5 mg/ml protein with 1 mM GSH; 1.8-2.2 M NH4SO4, 0.2 M NaCl, 0.1 M sodium cacodylate pH 6.1-6.8; analog I soaked, analogs II and III co-crystallised; space group F23

B1: Leukotriene C4 synthase (human, wild type) (enzyme)
chain: MKDEVALLAAVTLLGVLLQAYFSLQVISARRAFRVSPPLTTGPPEFERVYRAQVNCSEYFPLFLATLWVAGIFFHEGAAALCGLVYLFARLRYFQGYARSAQLRLAPLYASARALWLLVALAALGLLAHFLPAALRAALLGRLRTLLPWA
notes: Leukotriene C4 synthase, human, wild type; integral membrane protein in dodecyl maltoside; Expression and purification 'essentially as described (15)'; The trimer arises by crystal symmetry (space group F23); also called LTC4S; LTC4 synthase
For B1, the “stoichiometry N” value was 3.
